A short description of the data set: yeast display, Sf9 membrane polyspecificity reagent, FACS + sequencing; frameworks hold sequencing errors. In outline:
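Sorting gates, low and high (top ~1%), were placed on anti-HA fluorescence to track expression and on streptavidin fluorescence to track reagent binding. A clone's polyreactivity label is taken from the gate it came out of. The reagent was 10% biotinylated, detergent-solubilized Sf9 membrane, applied for 1 hour at 4 °C to galactose-induced yeast display cells.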
For “QVQLVESGGCLVQAGGSLRLICAASGNTFYVYAMGWYRQAPGKERELVAAITWSGGSTNYADSVKGRYTISRDNAKNTVYLQMNSLKPEDSAVYYCKADYWTFSPYDYWGQGTQVTVSS”, the “polyreactivity (PSR sort gate)” value was “low polyreactivity”.
In the case of “QVQLVESGGCLVQAGGSLRLICAASGSIFDYNAMGWYRQAPGKERELVADITLSDDSTYYADSVKGRFTISRDNAKNTVYLQKNSLKPEDTAVYYCAADIKYYWYYYYWAYAYDYWGQGTQVTVSS”, the “polyreactivity (PSR sort gate)” value was “high polyreactivity”.
As for “QVQLVESGGCLVQAGGSLRLICAASVSIFYYYAMGWYRQAPGKERELVATIRSSDGSTYYADSVKGRFTISRDNAKNTVYLQMYSLKPEDTAVYYCAHGYFRYDYWGQGTQVSVSS”, the “polyreactivity (PSR sort gate)” value is given as “low polyreactivity”.
For “QVQLVESGGCLVQAGGSLRLRCAASGPNFPGYTKGWYRHAPRKAREFVAAISYSGGSTYADSVKGRFTISRDNAKNTVYLQMNSLKPEDTSVYYCAVFLQHWLDMYYWGQGTQVNVSS” the value was “low polyreactivity”; for “QVQLVESGGCLVQAGGSLRLSCAASGFIFRYNAMGWYRQAPGKERELVAAISWSGTTYYADSVKGRFTISRDNAKNTVYLQMNSLKPEDTAVFYCAAGRLFYGYRDFDYWGQGTQVTVSS”, “low polyreactivity”; for “QVQLVESGGCLVQAGGSLRLSCAASGFTFSDNSMGWYRQAHGKERELVATISQSSGSTSYADSLKGRFTISRDNAKNTVYLQMNSLKPEDTAVYYCAKRRLFYWGLGTQVTVSS”, “low polyreactivity”.
As for “QVQLVESGGCLVQAGGSLRLSCAASGFTFTTYAMGWYRQAPGKEREFVAALTKRGGRTYYADSVKGRFTISRDNAKITVYLQMNSLKPEDTAVYYCNKVVHSFPFPYRYDMDYWGQGTQVTVSS”, the “polyreactivity (PSR sort gate)” value is recorded as “high polyreactivity”.
With “QVQLVESGGCLVQAGGSLRLSCAASGFTFVRNAMGWYRQAPGKDRELVAAISGSGGRTYYADSVKGRFTISRDNAKNTVYLQMNSVKPEDTAVYYCNTASAYEYEYWGQGSQVTVSS”, the “polyreactivity (PSR sort gate)” value is “high polyreactivity”.
Regarding “QVQLVESGGCLVQAGGSLRLSCAASGFTLTGNAMGWYRQAPGKERELVADISNSGGTTNYADSVKGRFTISRDNAKNTVYLQMNSLKPDDSAVYYCAADVSYRNIGLEYWGQGTQVTVSS”, the “polyreactivity (PSR sort gate)” value was “high polyreactivity”.
Consider “QVQLVESGGCLVQAGGSLRLSCAASGGIFGKYAMGWYRQAPGKESELVAAITWNGVSTYYADSVKGRFTISRDNAKNTVYLQMNSLKPEDTAVYYCAKASLPYRPDSTPDRRYDYWGQGTQVTVSS”, for which the “polyreactivity (PSR sort gate)” value was “high polyreactivity”.
For the sequence “QVQLVESGGCLVQAGGSLRLSCAASGGIFSYNAMGWYRQAPGKERELVAAISYSGGNTYYADSVKGRFTISRDNAKNTVYLQMNSLKPEDTAVYYCAATGYYNWYTSGYWGQGTQVTVSS”, the “polyreactivity (PSR sort gate)” value is recorded as “high polyreactivity”.
As to “QVQLVESGGCLVQAGGSLRLSCAASGHIFTFYAMGWYRQAPGKERELVATIRWSGGSTYYADSVKGRFTISRDNAKNTVYLQMNSLKPEDTAVYYCAATYYPSSYVQRLDYWGQGTQVTVSS”, the “polyreactivity (PSR sort gate)” value is reported as “low polyreactivity”.
With “QVQLVESGGCLVQAGGSLRLSCAASGIIFQQYAMGWYRQAPGKARELVAAITYSGDGTYYADSVKGRFTISRDNAKNTVYLQMNSLKPEDTAVYDCAAYPRDPYKEYDYWGQGTQVTVSS”, the “polyreactivity (PSR sort gate)” value was “low polyreactivity”.
In the case of “QVQLVESGGCLVQAGGSLRLSCAASGIIFTYYAMGWSRQAPGKESELVARISSSGGRTYYADSVKGRVTISRDNGKNTVYLQMNSLNPEDTAVYYCAAAIVSYGRNDYWGQGTQVTVSS”, the “polyreactivity (PSR sort gate)” value is reported as “high polyreactivity”.
As to “QVQLVESGGCLVQAGGSLRLSCAASGITFRRYTMGWYRQAPGKERELVATISLSDGNTYYADSVKGRFTISRDNAKNSVYLQMNSLKPEDTAVYYCNADSTTQVYDYWGQGTQVTVSS”, the “polyreactivity (PSR sort gate)” value is listed as “low polyreactivity”.
In the case of “QVQLVESGGCLVQAGGSLRLSCAASGLIFRKYARGWSRQAPGKERELVAAISVSGGSTYYADSVKGRFTISRDNAKNTVYLQMNSLKPEDTAVYYCAATDFGRRGGSFYYWGQGTQVTVSS”, the “polyreactivity (PSR sort gate)” value is “high polyreactivity”.
For “QVQLVESGGCLVQAGGSLRLSCAASGLNFSKNVKGWYIQAPGKERELVAAISQRGGSTYYADSVKGRFTISRDYAKNTVYLQMNSLKPEDTAVYYCAADTTVSHEDYWGQGTQVTVSS” the value was “low polyreactivity”; for “QVQLVESGGCLVQAGGSLRLSCAASGLTIFVNAMGWYRQAPGKERELVATISGGGSTYYADSVKGRFTISRDNAKNTVYLQMNSLKPEDTAVYYCNGGGYGLRGDYWGQGTQVTVSS”, “low polyreactivity”; for “QVQLVESGGCLVQAGGSLRLSCAASGRIFVTYAMGWYRQAPGNERELVAAITSRGGRTYYADSVKGRFTISRDYAKNTVYLQMNSLKPEDTAVYYCAASPGPGARYYYWCQGTQVTVSS”, “high polyreactivity”.
Consider “QVQLVESGGCLVQAGGSLRLSCAASGRIIDFYTLGWYRQAPGKERELVAGINGSGASTYYADSVKGRFTISRDNAKNTVYLQMNSLKPEDTAVYYCAKDPGYYYDYDYWGQGTQVTVSS”, for which the “polyreactivity (PSR sort gate)” value is “low polyreactivity”.
For the sequence “QVQLVESGGCLVQAGGSLRLSCAASGRISGFNAMGWYRQAPGKERELVAANSYRGGSTYADSVKGRFTISRVNAKNTVYLQMNSLKPEDTAVYYCAAQSYWTFHTYYYWGQGTQVTVSS”, the “polyreactivity (PSR sort gate)” value is “low polyreactivity”.
For “QVQLVESGGCLVQAGGSLRLSCAASGRNIAYNAMGWSRQAPGKERELVASISSGGSTFYADSVKGRFTISRDNAKNTVYLQMNSLKPEDTAVYYCAKGGYWGQGTQVSVSS”, the “polyreactivity (PSR sort gate)” value is given as “high polyreactivity”.
As for “QVQLVESGGCLVQAGGSLRLSCAASGRTFRRYAMGWYRQAPGKERELVASITWRGGRTYYADSVKGRFTISRDNAKNTVYLQMNSLKPEDTAVYYCAAEDYQLPGYRRTHVEKMDYWGQGTQVTVSS”, the “polyreactivity (PSR sort gate)” value is “low polyreactivity”.
“QVQLVESGGCLVQAGGSLRLSCAASGRTFSPNAMGWYRQAPGKERELVAAISWISGGRTYYADSVKGRFTISRDNAKNTVYLQMNSLKPEDTAVYYCAAEYYYTYGYWGQGTQVTVSS”: the “polyreactivity (PSR sort gate)” value was “high polyreactivity”.
For the sequence “QVQLVESGGCLVQAGGSLRLSCAASGRTFYTNGMGWYRQAPGKEREFVAGITYRGGGTYYADSVKGRFTISRDNAQNTVYLQMNSLKPEDTAVYYCAARYYRDYRWYTYAYDYWGQGTQVTVSS”, the “polyreactivity (PSR sort gate)” value is recorded as “high polyreactivity”.
For “QVQLVESGGCLVQAGGSLRLSCAASGRTLDFNVLGWYRPAPGQERELVAAITWSGGSTYYADSVKGRFTISRDNAQNTVYLQMNSLKQEDTAGYYCAAKALYAYRLYDYSGQGTQVTVSS” the value was “high polyreactivity”.
“QVQLVESGGCLVQAGGSLRLSCAASGRTSTGYSMGWYRQAPGKERELVAGIDKIGGRTYYADSVKGRFTISRDNAKNTVYLQMNSLKPEDTAVYYCAVKTSPRRYYWGQGTQVTVSS”: the “polyreactivity (PSR sort gate)” value is “high polyreactivity”.
For “QVQLVESGGCLVQAGGSLRLSCAASGSIFGAYVMGWYRQAPGKERELVAAITRRGGSTYYADSVKGRFTISRDNAKNTVYLQMNSLKPEDTAVYYCAARRGAGDGYWGQGTQVTVSS”, the “polyreactivity (PSR sort gate)” value is listed as “high polyreactivity”.
For the sequence “QVQLVESGGCLVQAGGSLRLSCAASGSIFGENAMGWYRQAPGKERELVAAITSGGSTDYADSVKGRFTISRDNAKNTVYLQMNSLKTEDTAVYYCAASGRVGPGYWYDSWGQGTQVTVSS”, the “polyreactivity (PSR sort gate)” value was “low polyreactivity”.
As for “QVQLVESGGCLVQAGGSLRLSCAASGSIFGVNAMGGYRQPPGKDRELVASITGGDSTNYADSVKGRFTISRDNAKNTVYLQMNSLKPEDTAVYYCAKDHYYRYEEGDYWGLGTQVTVSS”, the “polyreactivity (PSR sort gate)” value is given as “low polyreactivity”.

(Values after the nanobody polyreactivity screen of Harvey et al. (2022).)
